Measurements from US20160176924A1, “MODIFIED PEPTIDES AS POTENT INHIBITORS OF THE PSD-95/NMDA RECEPTOR INTERACTION” (priority 2008, published 2016).
One block for each substance: values may come before it.

How the values were obtained:
Test in all cases: FP competition, fluorescent NR2B probe
[1] = target: HIS-PDZ1 protein (PSD-95 PDZ1, residues 61-151, with tag …) (human) (UniProt P78352)
[2] = target: HIS-PDZ2 protein (PSD-95 PDZ2, residues 155-249, with tag …) (human) (UniProt P78352)
[3] = target: HIS-PDZ1-2 protein (PSD-95 PDZ1-2 tandem, residues 61-249, with tag …) (human) (UniProt P78352)

fold increase in Ki compared to peptide 1 [1]: > 20 fold | fold increase in Ki compared to peptide 1 [2]: > 30 fold
Substance: SDV (9) (peptide)

Substance: Tat-NR2B (3) (peptide)
Ki [1]: 14 µM | Ki [3]: 9.8 µM | Ki [2]: 4.4 µM

fold impairment of affinity relative to peptide 1 [1]: > 25 fold | fold impairment of affinity relative to peptide 1 [2]: > 25 fold
Substance: ESDV (8) with D-Glu instead of L-Glu (peptide)

Ki [1]: 42 µM | Ki [2]: 37 µM
Substance: TAV (49) (peptide)
